Experimental data published in article doi:10.1101/2021.06.30.450611.

Molecular target: Taxol-stabilised microtubules assembled from pig tubulin (single molecule motility assay) (pig)
Assay: single molecule TIRF motility assay

| dwell time | Binder |
| --- | --- |
| 36.3 s | full-length recombinant human KIF1C-GFP (wildtype) (natural protein) MAGASVKVAVRVRPFNARETSQDAKCVVSMQGNTTSIINPKQSKDAPKSFTFDYSYWSHTSTEDPQFASQQQVYRDIGEEMLLHAFEGYNVCIFAYGQTGAGKSYTMMGRQEPGQQGIVPQLCEDLFSRVSENQSAQLSYSVEVSYMEIYCERVRDLLNPKSRGSLRVREHPILGPYVQDLSKLAVTSYADIADLMDCGNKARTVAATNMNETSSRSHAVFTIVFTQRCHDQLTGLDSEKVSKISLVDLAGSERADSSGARGMRLKEGANINKSLTTLGKVISALADMQSKKRKSDFIPYRDSVLTWLLKENLGGNSRTAMIAALSPADINYEETLSTLRYADRTKQIRCNAIINEDPNARLIRELQEEVARLRELLMAQGLSASALEGLKTEEGSVRGALPAVSSPPAPVSPSSPTTHNGELEPSFSPNTESQIGPEEAMERLQETEKIIAELNETWEEKLRKTEALRMEREALLAEMGVAVREDGGTVGVFSPKKTPHLVNLNEDPLMSECLLYHIKDGVTRVGQVDMDIKLTGQFIREQHCLFRSIPQPDGEVVVTLEPCEGAETYVNGKLVTEPLVLKSGNRIVMGKNHVFRFNHPEQARLERERGVPPPPGPPSEPVDWNFAQKELLEQQGIDIKLEMEKRLQDLENQYRKEKEEADLLLEQQRLYADSDSGDDSDKRSCEESWRLISSLREQLPPTTVQTIVKRCGLPSSGKRRAPRRVYQIPQRRRLQGKDPRWATMADLKMQAVKEICYEVALADFRHGRAEIEALAALKMRELCRTYGKPDGPGDAWRAVARDVWDTVGEEEGGGAGSGGGSEEGARGAEVEDLRAHIDKLTGILQEVKLQNSSKDRELQALRDRMLRMERVIPLAQDHEDENEEGGEVPWAPPEGSEAAEEAAPSDRMPSARPPSPPLSSWERVSRLMEEDPAFRRGRLRWLKQEQLRLQGLQGSGGRGGGLRRPPARFVPPHDCKLRFPFKSNPQHRESWPGMGSGEAPTPLQPPEEVTPHPATPARRPPSPRRSHHPRRNSLDGGGRSRGAGSAQPEPQHFQPKKHNSYPQPPQPYPAQRPPGPRYPPYTTPPRMRRQRSAPDLKESGAAV |
| 25.8 s | full-length recombinant human KIF1C(P176L)-GFP (natural protein) MAGASVKVAVRVRPFNARETSQDAKCVVSMQGNTTSIINPKQSKDAPKSFTFDYSYWSHTSTEDPQFASQQQVYRDIGEEMLLHAFEGYNVCIFAYGQTGAGKSYTMMGRQEPGQQGIVPQLCEDLFSRVSENQSAQLSYSVEVSYMEIYCERVRDLLNPKSRGSLRVREHPILGLYVQDLSKLAVTSYADIADLMDCGNKARTVAATNMNETSSRSHAVFTIVFTQRCHDQLTGLDSEKVSKISLVDLAGSERADSSGARGMRLKEGANINKSLTTLGKVISALADMQSKKRKSDFIPYRDSVLTWLLKENLGGNSRTAMIAALSPADINYEETLSTLRYADRTKQIRCNAIINEDPNARLIRELQEEVARLRELLMAQGLSASALEGLKTEEGSVRGALPAVSSPPAPVSPSSPTTHNGELEPSFSPNTESQIGPEEAMERLQETEKIIAELNETWEEKLRKTEALRMEREALLAEMGVAVREDGGTVGVFSPKKTPHLVNLNEDPLMSECLLYHIKDGVTRVGQVDMDIKLTGQFIREQHCLFRSIPQPDGEVVVTLEPCEGAETYVNGKLVTEPLVLKSGNRIVMGKNHVFRFNHPEQARLERERGVPPPPGPPSEPVDWNFAQKELLEQQGIDIKLEMEKRLQDLENQYRKEKEEADLLLEQQRLYADSDSGDDSDKRSCEESWRLISSLREQLPPTTVQTIVKRCGLPSSGKRRAPRRVYQIPQRRRLQGKDPRWATMADLKMQAVKEICYEVALADFRHGRAEIEALAALKMRELCRTYGKPDGPGDAWRAVARDVWDTVGEEEGGGAGSGGGSEEGARGAEVEDLRAHIDKLTGILQEVKLQNSSKDRELQALRDRMLRMERVIPLAQDHEDENEEGGEVPWAPPEGSEAAEEAAPSDRMPSARPPSPPLSSWERVSRLMEEDPAFRRGRLRWLKQEQLRLQGLQGSGGRGGGLRRPPARFVPPHDCKLRFPFKSNPQHRESWPGMGSGEAPTPLQPPEEVTPHPATPARRPPSPRRSHHPRRNSLDGGGRSRGAGSAQPEPQHFQPKKHNSYPQPPQPYPAQRPPGPRYPPYTTPPRMRRQRSAPDLKESGAAV |
| 16 s | full-length recombinant human KIF1C(R169W)-GFP (natural protein) MAGASVKVAVRVRPFNARETSQDAKCVVSMQGNTTSIINPKQSKDAPKSFTFDYSYWSHTSTEDPQFASQQQVYRDIGEEMLLHAFEGYNVCIFAYGQTGAGKSYTMMGRQEPGQQGIVPQLCEDLFSRVSENQSAQLSYSVEVSYMEIYCERVRDLLNPKSRGSLRVWEHPILGPYVQDLSKLAVTSYADIADLMDCGNKARTVAATNMNETSSRSHAVFTIVFTQRCHDQLTGLDSEKVSKISLVDLAGSERADSSGARGMRLKEGANINKSLTTLGKVISALADMQSKKRKSDFIPYRDSVLTWLLKENLGGNSRTAMIAALSPADINYEETLSTLRYADRTKQIRCNAIINEDPNARLIRELQEEVARLRELLMAQGLSASALEGLKTEEGSVRGALPAVSSPPAPVSPSSPTTHNGELEPSFSPNTESQIGPEEAMERLQETEKIIAELNETWEEKLRKTEALRMEREALLAEMGVAVREDGGTVGVFSPKKTPHLVNLNEDPLMSECLLYHIKDGVTRVGQVDMDIKLTGQFIREQHCLFRSIPQPDGEVVVTLEPCEGAETYVNGKLVTEPLVLKSGNRIVMGKNHVFRFNHPEQARLERERGVPPPPGPPSEPVDWNFAQKELLEQQGIDIKLEMEKRLQDLENQYRKEKEEADLLLEQQRLYADSDSGDDSDKRSCEESWRLISSLREQLPPTTVQTIVKRCGLPSSGKRRAPRRVYQIPQRRRLQGKDPRWATMADLKMQAVKEICYEVALADFRHGRAEIEALAALKMRELCRTYGKPDGPGDAWRAVARDVWDTVGEEEGGGAGSGGGSEEGARGAEVEDLRAHIDKLTGILQEVKLQNSSKDRELQALRDRMLRMERVIPLAQDHEDENEEGGEVPWAPPEGSEAAEEAAPSDRMPSARPPSPPLSSWERVSRLMEEDPAFRRGRLRWLKQEQLRLQGLQGSGGRGGGLRRPPARFVPPHDCKLRFPFKSNPQHRESWPGMGSGEAPTPLQPPEEVTPHPATPARRPPSPRRSHHPRRNSLDGGGRSRGAGSAQPEPQHFQPKKHNSYPQPPQPYPAQRPPGPRYPPYTTPPRMRRQRSAPDLKESGAAV |
